Assay results: IntAct's records for PubMed 22164283

Each substance was assayed against tbxt_mouse Tbxt (UniProt P20293).
Chain of tbxt_mouse Tbxt (P20293 whole entry): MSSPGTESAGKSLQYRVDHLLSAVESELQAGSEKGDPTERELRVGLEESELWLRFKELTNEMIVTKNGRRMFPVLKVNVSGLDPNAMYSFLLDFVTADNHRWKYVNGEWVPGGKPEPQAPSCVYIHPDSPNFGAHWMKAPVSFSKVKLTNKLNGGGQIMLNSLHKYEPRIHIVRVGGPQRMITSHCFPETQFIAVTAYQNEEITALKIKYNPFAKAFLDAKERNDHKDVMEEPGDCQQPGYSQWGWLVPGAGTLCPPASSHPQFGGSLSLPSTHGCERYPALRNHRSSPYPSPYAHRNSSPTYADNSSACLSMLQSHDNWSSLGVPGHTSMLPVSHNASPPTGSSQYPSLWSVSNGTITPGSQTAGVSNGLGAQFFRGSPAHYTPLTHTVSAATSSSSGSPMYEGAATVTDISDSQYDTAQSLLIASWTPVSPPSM

Chain of Homeobox protein MIXL1 (Mus musculus), Q9WUI0 V132A (Q9WUI0 whole entry V132A): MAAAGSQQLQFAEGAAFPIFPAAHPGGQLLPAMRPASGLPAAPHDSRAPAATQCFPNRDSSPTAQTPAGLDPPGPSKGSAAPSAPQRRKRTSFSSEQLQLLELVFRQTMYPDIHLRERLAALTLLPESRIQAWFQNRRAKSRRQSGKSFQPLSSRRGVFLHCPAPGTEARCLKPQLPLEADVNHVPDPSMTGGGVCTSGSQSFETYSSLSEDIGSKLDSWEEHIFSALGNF
Chain of Homeobox protein MIXL1 (Mus musculus), Q9WUI0 I113R (Q9WUI0 whole entry I113R): as the sequence (Q9WUI0 whole entry V132A) above, with I113R, A132V counted along it
Chain of Homeobox protein MIXL1 (Mus musculus), Q9WUI0 R143I (Q9WUI0 whole entry R143I): as the sequence (Q9WUI0 whole entry V132A) above, with A132V, R143I counted along it
Chain of Homeobox protein MIXL1 (Mus musculus), Q9WUI0 P126I (Q9WUI0 whole entry P126I): as the sequence (Q9WUI0 whole entry V132A) above, with P126I, A132V counted along it

effect of a mutation on the interaction	Substance
decreasing interaction strength	Homeobox protein MIXL1 (Mus musculus), Q9WUI0 P126I
with no effect	Homeobox protein MIXL1 (Mus musculus), Q9WUI0 V132A
with no effect	Homeobox protein MIXL1 (Mus musculus), Q9WUI0 R143I
with no effect	Homeobox protein MIXL1 (Mus musculus), Q9WUI0 I113R
